# Legend:
# [1] = target: pure human iC3b (Complement Technology, A115) (human) (UniProt P01024); test: sandwich ELISA, capture A209 (Example 5), goat anti-C3-HRP; TABLE 7, iC3b in 20% vitreous
# [2] = target: pure human iC3b (Complement Technology, A115) (human) (UniProt P01024); test: sandwich ELISA, capture A209 (Example 5), goat anti-C3-HRP; TABLE 6 well G3, 10% vitreous
# [3] = target: pure human iC3b (Complement Technology, A115) (human) (UniProt P01024); test: sandwich ELISA, capture A209 (Example 5), goat anti-C3-HRP; TABLE 6 well B8, blocker
# [4] = target: pure human iC3b (Complement Technology, A115) (human) (UniProt P01024); test: sandwich ELISA, capture A209 (Example 5), goat anti-C3-HRP; TABLE 6 well C5, 30% vitreous
# [5] = target: pure human iC3b (Complement Technology, A115) (human) (UniProt P01024); test: sandwich ELISA, capture A209 (Example 5), goat anti-C3-HRP; TABLE 6 well H4, 10% vitreous
# [6] = target: pure human iC3b (Complement Technology, A115) (human) (UniProt P01024); test: sandwich ELISA, capture A209 (Example 5), goat anti-C3-HRP; TABLE 6 well C6, 30% vitreous
# [7] = target: pure human iC3b (Complement Technology, A115) (human) (UniProt P01024); test: sandwich ELISA, capture A209 (Example 5), goat anti-C3-HRP; TABLE 6 well C3, 30% vitreous
# [8] = target: pure human iC3b (Complement Technology, A115) (human) (UniProt P01024); test: sandwich ELISA, capture A209 (Example 5), goat anti-C3-HRP; TABLE 6 well D9, 30% vitreous
# [9] = target: pure human iC3b (Complement Technology, A115) (human) (UniProt P01024); test: sandwich ELISA, capture A209 (Example 5), goat anti-C3-HRP; TABLE 6 well F6, 20% vitreous
# [10] = target: pure human iC3b (Complement Technology, A115) (human) (UniProt P01024); test: sandwich ELISA, capture A209 (Example 5), goat anti-C3-HRP; TABLE 6 well B7, blocker
# [11] = target: pure human iC3b (Complement Technology, A115) (human) (UniProt P01024); test: sandwich ELISA, capture A209 (Example 5), goat anti-C3-HRP; TABLE 6 well F7, 20% vitreous
# [12] = target: pure human iC3b (Complement Technology, A115) (human) (UniProt P01024); test: sandwich ELISA, capture A209 (Example 5), goat anti-C3-HRP; TABLE 6 well A8, blocker
# [13] = target: pure human iC3b (Complement Technology, A115) (human) (UniProt P01024); test: sandwich ELISA, capture A209 (Example 5), goat anti-C3-HRP; TABLE 6 well B4, blocker
# [14] = target: pure human iC3b (Complement Technology, A115) (human) (UniProt P01024); test: sandwich ELISA, capture A209 (Example 5), goat anti-C3-HRP; TABLE 6 well G5, 10% vitreous
# [15] = target: pure human iC3b (Complement Technology, A115) (human) (UniProt P01024); test: sandwich ELISA, capture A209 (Example 5), goat anti-C3-HRP; TABLE 6 well A5, blocker
# [16] = target: pure human iC3b (Complement Technology, A115) (human) (UniProt P01024); test: sandwich ELISA, capture A209 (Example 5), goat anti-C3-HRP; TABLE 6 well F8, 20% vitreous
# [17] = target: pure human iC3b (Complement Technology, A115) (human) (UniProt P01024); test: sandwich ELISA, capture A209 (Example 5), goat anti-C3-HRP; TABLE 6 well B9, blocker
# [18] = target: pure human iC3b (Complement Technology, A115) (human) (UniProt P01024); test: sandwich ELISA, capture A209 (Example 5), goat anti-C3-HRP; TABLE 6 well D2, 30% vitreous
# [19] = target: pure human iC3b (Complement Technology, A115) (human) (UniProt P01024); test: sandwich ELISA, capture A209 (Example 5), goat anti-C3-HRP; TABLE 6 well C4, 30% vitreous
# [20] = target: pure human iC3b (Complement Technology, A115) (human) (UniProt P01024); test: sandwich ELISA, capture A209 (Example 5), goat anti-C3-HRP; TABLE 6 well A6, blocker
# [21] = target: pure human iC3b (Complement Technology, A115) (human) (UniProt P01024); test: sandwich ELISA, capture A209 (Example 5), goat anti-C3-HRP; TABLE 6 well H7, 10% vitreous
# [22] = target: pure human iC3b (Complement Technology, A115) (human) (UniProt P01024); test: sandwich ELISA, capture A209 (Example 5), goat anti-C3-HRP; TABLE 6 well H9, 10% vitreous
# [23] = target: pure human iC3b (Complement Technology, A115) (human) (UniProt P01024); test: sandwich ELISA, capture A209 (Example 5), goat anti-C3-HRP; TABLE 6 well F4, 20% vitreous
# [24] = target: pure human iC3b (Complement Technology, A115) (human) (UniProt P01024); test: sandwich ELISA, capture A209 (Example 5), goat anti-C3-HRP; TABLE 6 well B6, blocker
# UniProt P01024, sequence (P01024 23-667 limits assumed, chain 1 of 3): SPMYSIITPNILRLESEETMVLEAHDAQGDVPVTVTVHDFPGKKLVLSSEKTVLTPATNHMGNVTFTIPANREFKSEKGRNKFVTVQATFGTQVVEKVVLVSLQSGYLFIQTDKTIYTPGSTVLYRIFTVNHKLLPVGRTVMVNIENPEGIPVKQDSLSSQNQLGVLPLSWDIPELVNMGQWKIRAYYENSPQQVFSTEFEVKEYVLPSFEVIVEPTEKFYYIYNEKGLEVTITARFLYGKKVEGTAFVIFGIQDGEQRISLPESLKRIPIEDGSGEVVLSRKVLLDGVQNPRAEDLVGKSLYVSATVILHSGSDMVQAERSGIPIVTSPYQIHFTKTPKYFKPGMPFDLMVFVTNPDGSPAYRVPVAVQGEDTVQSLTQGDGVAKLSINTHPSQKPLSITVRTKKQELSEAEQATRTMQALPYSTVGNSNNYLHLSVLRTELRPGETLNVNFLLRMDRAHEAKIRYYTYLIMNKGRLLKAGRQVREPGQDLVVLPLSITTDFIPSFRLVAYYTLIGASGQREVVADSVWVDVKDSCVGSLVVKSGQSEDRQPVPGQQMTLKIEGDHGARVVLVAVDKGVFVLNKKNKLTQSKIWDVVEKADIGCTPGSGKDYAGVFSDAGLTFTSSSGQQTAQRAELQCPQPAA
# UniProt P01024, sequence (P01024 749-1303 limits assumed, chain 2 of 3): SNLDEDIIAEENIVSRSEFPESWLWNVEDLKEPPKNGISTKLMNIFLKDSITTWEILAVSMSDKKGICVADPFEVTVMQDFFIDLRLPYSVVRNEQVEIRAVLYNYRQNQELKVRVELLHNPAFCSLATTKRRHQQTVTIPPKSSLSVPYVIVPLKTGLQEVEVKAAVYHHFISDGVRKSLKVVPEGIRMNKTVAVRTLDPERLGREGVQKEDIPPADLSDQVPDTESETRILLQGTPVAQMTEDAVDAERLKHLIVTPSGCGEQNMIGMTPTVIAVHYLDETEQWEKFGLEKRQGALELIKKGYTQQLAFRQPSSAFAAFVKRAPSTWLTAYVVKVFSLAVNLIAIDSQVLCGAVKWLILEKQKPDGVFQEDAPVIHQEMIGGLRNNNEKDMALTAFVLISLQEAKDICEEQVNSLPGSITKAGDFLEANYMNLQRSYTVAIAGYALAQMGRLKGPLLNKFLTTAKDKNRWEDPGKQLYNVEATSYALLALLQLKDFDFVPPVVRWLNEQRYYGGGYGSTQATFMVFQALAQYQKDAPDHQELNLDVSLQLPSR
# UniProt P01024, sequence (P01024 1321-1663 limits assumed, chain 3 of 3): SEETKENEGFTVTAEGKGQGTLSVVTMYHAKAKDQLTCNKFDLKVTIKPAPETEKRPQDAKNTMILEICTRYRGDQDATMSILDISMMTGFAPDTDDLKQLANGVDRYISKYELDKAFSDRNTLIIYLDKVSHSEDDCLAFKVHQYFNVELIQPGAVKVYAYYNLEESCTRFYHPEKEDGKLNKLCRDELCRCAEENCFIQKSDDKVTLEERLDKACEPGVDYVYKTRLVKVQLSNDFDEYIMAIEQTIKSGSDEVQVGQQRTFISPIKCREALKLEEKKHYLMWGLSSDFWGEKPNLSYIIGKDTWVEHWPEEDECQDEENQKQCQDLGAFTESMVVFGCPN
substance,measurement,setting,value
mouse anti-iC3b antibody A209 (Quidel),A450 minus matrix average at iC3b 0.0078 ug/ml,[1],-0.002 OD
same,A450 minus matrix average at iC3b 0.016 ug/ml,[1],0 OD
same,A450 minus matrix average at iC3b 0.031 ug/ml,[1],0.012 OD
same,A450 minus matrix average at iC3b 0.063 ug/ml,[1],0.03 OD
same,A450 minus matrix average at iC3b 0.25 ug/ml,[1],0.099 OD
same,A450 minus matrix average at iC3b 0.5 ug/ml,[1],0.122 OD
same,A450 minus matrix average at iC3b 1 ug/ml,[1],0.182 OD
same,raw A450 at iC3b 0.5 ug/ml,[2],0.385 OD
same,raw A450 at iC3b 0.016 ug/ml,[3],0.038 OD
same,raw A450 at iC3b 0.125 ug/ml,[4],0.385 OD
same,raw A450 at iC3b 0.25 ug/ml,[5],0.283 OD
same,raw A450 at iC3b 0.063 ug/ml,[6],0.375 OD
same,raw A450 at iC3b 0.5 ug/ml,[7],0.406 OD
same,raw A450 at iC3b 0.0078 ug/ml,[8],0.362 OD
same,raw A450 at iC3b 0.063 ug/ml,[9],0.355 OD
same,raw A450 at iC3b 0.031 ug/ml,[10],0.048 OD
same,raw A450 at iC3b 0.031 ug/ml,[11],0.333 OD
same,raw A450 at iC3b 0.016 ug/ml,[12],0.043 OD
same,raw A450 at iC3b 0.25 ug/ml,[13],0.167 OD
same,raw A450 at iC3b 0.125 ug/ml,[14],0.274 OD
same,raw A450 at iC3b 0.125 ug/ml,[15],0.106 OD
same,raw A450 at iC3b 0.016 ug/ml,[16],0.318 OD
same,raw A450 at iC3b 0.0078 ug/ml,[17],0.032 OD
same,raw A450 at iC3b 1 ug/ml,[18],0.453 OD
same,raw A450 at iC3b 0.25 ug/ml,[19],0.391 OD
same,raw A450 at iC3b 0.063 ug/ml,[20],0.064 OD
same,raw A450 at iC3b 0.031 ug/ml,[21],0.231 OD
same,raw A450 at iC3b 0.0078 ug/ml,[22],0.207 OD
same,raw A450 at iC3b 0.25 ug/ml,[23],0.435 OD
same,raw A450 at iC3b 0.063 ug/ml,[24],0.07 OD

# Reference: patent US20160153985A1
